Measured values: patent CN112794898A (YIKANG BIOLOGY SUZHOU CO LTD, dated 2021)

Biological target: SARS-CoV2 S蛋白受体结合域(RBD) (SARS-CoV2, UniProt P0DTC2 319-541)

B1: 单克隆抗体YK-CoV2-02的Fab (Fab, V domains shown)
VH: QVQLVESGGGLIQPGGSLRLSCAVSGFTVSSNYMSWVRQAPGKGLEWVSVIYPGGSTFYADSVKGRFTISRDNDNSKNTLYLQMNSLRAEDTAVYYCARDWVRGSNWGQGTLVTVSS
VL: EIVLTQSPATLSLSPGERATLSCRASQSVSNYLAWYQQKPGQAPRLLIYDASNRATGIPARFSGSGSGTDFTLTISSLEPEDFAVYYCQERSNWPSGTFGPGTKVDIK
Kd: 4.03 nM
